Laboratory results as given in patent US9926375B2, “Anti-endoglin antibodies and uses thereof” (Tracon Pharmaceuticals, Inc., priority 2014, dated 2018).
Entries after “also recorded” stand apart in the source; their conditions may differ.

Experiments:
[1] = target: T1, human CD105 (Homo sapiens, UniProt P17813); experiment: ELISA binding of biotinylated TRC205 antibody to human CD105; details: from the binding curve
T1 construct: purchased R&D Systems 1097-EN
T1 sequence (P17813 26-586 limits assumed): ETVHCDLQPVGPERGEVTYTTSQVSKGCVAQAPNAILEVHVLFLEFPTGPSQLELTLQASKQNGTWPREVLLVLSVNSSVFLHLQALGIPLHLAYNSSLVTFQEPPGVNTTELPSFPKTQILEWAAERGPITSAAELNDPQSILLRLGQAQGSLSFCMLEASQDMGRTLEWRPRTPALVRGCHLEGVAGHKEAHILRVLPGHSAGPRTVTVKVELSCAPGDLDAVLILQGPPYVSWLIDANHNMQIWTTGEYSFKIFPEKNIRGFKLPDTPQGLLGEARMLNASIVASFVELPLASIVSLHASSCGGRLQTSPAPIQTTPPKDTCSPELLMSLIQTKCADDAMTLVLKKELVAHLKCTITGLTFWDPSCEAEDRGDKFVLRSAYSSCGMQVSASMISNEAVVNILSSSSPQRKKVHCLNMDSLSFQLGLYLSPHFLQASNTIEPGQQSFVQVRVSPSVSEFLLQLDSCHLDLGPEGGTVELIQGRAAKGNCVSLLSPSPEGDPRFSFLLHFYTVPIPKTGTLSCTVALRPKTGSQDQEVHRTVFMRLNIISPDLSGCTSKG
Description: An ELISA was established to determine the binding of biotinylated TRC205 antibody to human CD105 as follows: The TRC205 antibody (SEQ ID NO 89/SEQ ID NO 93; IgG4) was biotinylated using a Lightning-Link Biotin Conjugation Kit (Type A) (Innova Biosciences Cat. No. 704-0010) according to the manufacturer's instructions. […] After washing three times with PBST, a three-fold dilution series of biotinylated TRC205 antibody (10 μg/ml to 0.014 μg/ml) in PBST/2% BSA was added in duplicate to the plate. Following incubation for 1 hour at room temperature, the plate was washed three times with PBST and binding of the biotinylated TRC205 antibody was detected using streptavidin-HRP (Sigma Cat. No. 55512) and TMB substrate (Sigma Cat. No. T0440). OD450 nm values were measured on a Dynex MRX TCII plate reader.

[2] = system: NASH mice; experiment: Murine model of non-alcoholic steatohepatitis (NASH; STZ and high fat diet); assay type: in vivo, mouse
Excerpt: The purpose of this study was to examine the protective effects of endoglin antibodies on a murine model of NASH.
NASH was established by a single subcutaneous injection of STZ (Sigma, USA) after birth and feeding with a high fat diet (HFD; CLEA Japan, Japan) ad libitum after 4 weeks of age (day 28±2).
Randomization of mice into 6 groups of 10 mice was done at 9 weeks of age (day 63±2), the day before the start of treatment.
Group 3 (Positive control; Temlisartan Group): Ten NASH mice were be orally administered pure water supplemented with telmisartan at a dose of 10 mg/kg once daily from day 63 to 84.
Group 4 (Antibody M1043: M1043 Group): Ten NASH mice were intravenously administered vehicle supplemented with Antibody M1043 at a dose of 10 mg/kg twice weekly at day 63, 66, 70, 73, 77 and 80.
Group 5 (Antibody TRC105; TRC105 Group): Ten NASH mice were intravenously administered vehicle supplemented with Antibody TRC105 at a dose of 10 mg/kg twice weekly at day 63, 66, 70, 73, 77 and 80.
Group 6 (Antibody TRC205; TRC205 Group): Ten NASH mice were intravenously administered vehicle supplemented with Antibody TRC205 at a dose of 10 mg/kg twice weekly at days 63, 66, 70, 73, 77 and 80.
Mice in all groups were terminated for the following assays at 12 weeks of age.
H&E staining of liver tissue was conducted to estimate NAFLD Activity score.
Total NAS score represents the sum of scores for steatosis, lobular inflammation, and ballooning, and ranges from 0-8. Diagnosis of NASH (or, alternatively, fatty liver not diagnostic of NASH) should be made first, then NAS is used to grade activity. In the reference study, NAS scores of 0-2 occurred in cases largely considered not diagnostic of NASH, scores of 3-4 were evenly divided among those considered not diagnostic, borderline, or positive for NASH. Scores of 5-8 occurred in cases that were largely considered diagnostic of NASH.
Statistical tests were performed using Bonferroni Multiple Comparison Test. P values<0.05 were considered statistically significant.

[3] = target: T1, human CD105; experiment: Competition ELISA against biotinylated TRC205 antibody for binding to human CD105; details: biotinylated TRC205 55 ng/ml
Description: After washing three times with PBST, a three-fold dilution series of either human BMP9 (R&D Systems Cat. No. 3209-BP-010) (413 nM to 0.56 nM), or unlabelled TRC205 antibody (40 nM to 0.05 nM) or a single concentration of an irrelevant antibody (66 nM) was mixed with a fixed concentration of biotinylated TRC205 antibody (55 ng/ml) and added to the plate. Following incubation for 1 hour at room temperature, the plate was washed three times with PBST and binding of the biotinylated TRC205 antibody was detected using streptavidin-HRP (Sigma Cat. No. 55512) and TMB substrate (Sigma Cat. No. T0440). OD450 nm values were measured on a Dynex MRX TCII plate reader.

[4] = liver gene expression, mean ± SD, Normal-Vehicle 1.0

B1: TRC205: humanized and deimmunized anti-endoglin antibody (SEQ ID NO 89/SEQ ID NO 93; IgG4) (antibody, V domains shown)
VH: EVQLVESGGGLVKPGGSLRLSCAASGFTFSDAWMDWVRQAPGKGLEWVGEARSKASNHATYYAESVKGRFTISRDDSKNTLYLQMNSLKTEDTAVYYCTRWRRFFDSWGQGTLVTVSS
VL: DIQMTQSPSSLSASVGDRATITCRASSSVSYMHWYQQKPGKAPKPWAYATSNLASGVPSRFSGSGSGTDYTLTISSLQPEDFATYYCQQWSSNPLTFGGGTKVEIK
For B1, the “EC50 of binding to human CD105” value [1] was 0.046 µg/mL, the “Alpha-smooth muscle actin mRNA expression levels compared with the NASH-Vehicle group” value ([2]; Bonferroni, P<0.05) was “significantly down-regulated” and the “Liver triglyceride contents compared with the NASH-Vehicle group” value ([2]; Bonferroni, P<0.05) was “significant decreases”. For the same molecule, the “Mean liver-to-body weight ratio compared with the NASH-Vehicle group” value ([2]; Bonferroni, P<0.05) was “tended to decrease; also recorded: no significant difference”, the “NAS compared with the NASH-Vehicle group” value ([2]; Bonferroni, P<0.05) was “significant decreases in NAS; also recorded: significant reductions of NAS” and the “Serum alanine aminotransferase (ALT) levels compared with the NASH-Vehicle group” value ([2]; Bonferroni, P<0.05) was “tended to decrease”. For the same molecule, the “Serum alkaline phosphatase (ALP) levels compared with the NASH-Vehicle group” value ([2]; Bonferroni, P<0.05) was “significant decrease”, the “Serum aspartate aminotransferase (AST) levels compared with the NASH-Vehicle group” value ([2]; Bonferroni, P<0.05) was “tended to decrease” and the “Tissue inhibitor of metalloproteinase-1 mRNA expression levels compared with the NASH-Vehicle group” value ([2]; Bonferroni, P<0.05) was “tended to decrease”. The “Tumor necrosis factor-alpha mRNA expression levels compared with the NASH-Vehicle group” value ([2]; Bonferroni, P<0.05) was “tended to increase”, the “F4/80-positive signals and cells in liver compared with the NASH-Vehicle group” value ([2]; F4/80 immunostaining, macrophage marker) was “Lower F4/80-positive signals and positive cells” and the “Alpha-SMA mRNA expression” value [2, 4] was 1.1 ± 0.3. The “MCP-1 mRNA expression” value [2, 4] was 9.3 ± 9.1, the “TIMP-1 mRNA expression” value [2, 4] was 6.0 ± 2.6 and the “TNF-α mRNA expression” value [2, 4] was 6.2 ± 2.4. The Liver triglyceride ([2]; mean ± SD) was 29.3 ± 9.4 mg/g liver, the “Serum ALP” value ([2]; mean ± SD) was 264 ± 63 U/L and the “Serum ALT” value ([2]; mean ± SD) was 28 ± 16 U/L. For the same molecule, the “Serum AST” value ([2]; mean ± SD) was 83 ± 41 U/L, the Sirius red-positive area ([2]; mean ± SD, liver sections) was 0.93 ± 0.14% and the “NAS (NAFLD Activity score)” value ([2]; mean ± SD, range 0-8, 10 mg/kg) was 3.6 ± 1.1. The “Lobular inflammation score 0, number of mice” value ([2]; score 0 = No Foci) was 5, the “Hepatocyte ballooning score 0, number of mice” value ([2]; score 0 = None) was 1 and the “Steatosis score 1, number of mice” value ([2]; score 1 = 5-33%) was 6. For the same molecule, the “Hepatocyte ballooning score 1, number of mice” value ([2]; score 1 = Few balloon cells) was 4, the “Lobular inflammation score 2, number of mice” value ([2]; score 2 = 2-4 foci/200x) was 4 and the “Steatosis score 2, number of mice” value ([2]; score 2 = >33-66%) was 3. For the same molecule, the “Hepatocyte ballooning score 2, number of mice” value ([2]; score 2 = Many cells/prominent ballooning) was 4, the “Inflammatory cell infiltration in the liver” value ([2]; summary of lobular inflammation score and F4/80 immunostaining) was “reductions in inflammatory cell infiltration in the liver” and the “IC50 of competition with biotinylated TRC205 antibody” value [3] was 0.26 µg/mL.
